In US20050026833A1, “PSP-94: use for treatment of hypercalcemia and bone metastasis” (priority 2001, published 2005):
Entries after “also recorded” stand apart in the source; their conditions may differ.

B1: PSP-94: prostate secretory protein of 94 amino acids; native human seminal plasma PSP-94 (protein)
chain: SCYFIPNEGVPGDSTRKCMDLKGNKHPINSEWQTDNCETCTCYETEISCCTLVSTPVGYDKDNCQRIFKKEDCKYIVVEKKDPKKTCSVSEWII

What was measured:
[1] = tested on: Mat Ly Lu-PTHrP cells; test: Mat Ly Lu-PTHrP cell growth curve (Coulter counter); type: cell-based, rat
Experimental: Growth curve. For growth curves, Mat Ly Lu-PTHrP cells were plated in 6-well plates (Falcon Plastics, Oxnard, Calif.) at seeding densities of 5×10^3 cells/well. Mat Ly Lu-PTHrP cells were grown in the presence of 0.1, 1.0 & 10.0 ug/ml of PSP-94 or vehicle alone for up to 3 days and the ability of PSP-94 to alter cell doubling time was evaluated daily. Medium was changed every two days. The number of cells was counted in a model Z Coulter counter (Coulter Electronics, Beds, UK). Comparison was also made with doubling time of wild type untransfected Mat Ly Lu cells.
Mat Ly Lu cells transfected with vector alone (CMV) or vector expressing PTHrP were seeded at a density of 5×10^3 cells/well in 6-well plates. Mat Ly Lu-PTHrP cells were treated with PSP-94 and were trypsinized and counted using a coulter counter as described herein. Change in cell number following treatment with 10.0 ug/ml of PSP-94 for 72 hrs is illustrated in FIG. 1.
Mat Ly Lu-PTHrP cells were seeded at a density of 5×10^3 cells/well in 6-well plates and treated with different doses (1.0-100.0 ug/ml) of PCK3145 for up to 5 days and were trypsinized and counted using a coulter counter as described herein.

[2] = tested on: Mat Ly Lu-PTHrP tumors; test: S.C. Mat Ly Lu-PTHrP tumor growth (volume, weight) in Copenhagen rats; type: in vivo, male Copenhagen rats
Experimental: (§1) Control animals received PBS alone as vehicle control.
Starting from the day of tumor cell inoculation animals were infused S.C., below the tumor cell inoculation site, with different doses of PSP-94 (0.1-10.0 ug/kg/day) for up to 15 days.
In FIG. 2B male Copenhagen rats were inoculated s.c with 10^6 Mat Ly Lu-PTHrP cells. After 3 days of tumor cell inoculation, animals were injected with vehicle alone (Ctl) or different doses (0.1, 1, 10 ug/kg) of PSP-94 (nPSP) at the site of tumor cell injection. Tumor volume (expressed in cubic centimeter (cm^3)) was determined at timed intervals.
At the end of the study tumors from control (CTL), vehicle treated animals and PSP-94 treated animals were excised and weighed.

[3] = Plasma calcium by atomic absorption spectrophotometry in tumor bearing animals; type: in vivo, male Copenhagen rats
Experimental: as §1
Other Analytical Methods. Plasma calcium levels were determined by atomic absorption spectrophotometry (model 703, Perkin-Elmer, Norwalk, Conn.). For plasma PTHrP, all samples were tested in two dilutions in PTHrP radio-immunoassay (R.I.A.) kit (Nichols Institute Diagnostics, San Juan Capistrano, Calif.) according to manufacturer's instructions.
Comparison was made between plasma collected from normal, non-tumor bearing animals (N), control tumor bearing animals receiving vehicle alone (CTL) and plasma collected from experimental animals receiving different doses of PSP-94 (0.1-10.0 ug/kg/day). Plasma calcium levels were determined by atomic absorption spectrophotometry (model 703, Perkin-Elmer, Norwalk, Conn.). For plasma PTHrP, all samples were tested in two dilutions in PTHrP R.I.A. kit (Nichols Institute Diagnostics, San Juan Capistrano, Calif.) according to manufacturers instructions.
FIGS. 10A and 10B show male Copenhagen rats inoculated s.c. with 10^6 Mat Ly Lu-PTHrP cells. Following 3 days of tumor cell inoculation, animals were treated with vehicle alone (Ctl) or different doses (1.0, or 10.0 ug/kg/day) of PSP-94 for 18 days. Animals were sacrificed on day 21 and plasma PTHrP (FIG. 10A; expressed in picomole equivalents/liter) or plasma calcium (FIG. 10B; expressed in millimolar (mM)) levels were determined. Results for non-tumor bearing animals are also shown (N).
Plasma calcium levels from non-tumor bearing animals are also shown (N).

[4] = tested on: Mat Ly Lu-PTHrP tumors; test: TUNEL assay and Hoechst counterstaining of primary tumor sections; type: in vivo, male Copenhagen rats; conditions: vs vehicle; for TUNEL staining of tumor sections: fifteen days
Experimental: For TUNEL assay, tissue sections were, for example, dewaxed (e.g., in xylene), (may also be rehydrated by heating at 60° C. followed by washing in xylene) and (further) rehydrated through a graded alcohol series (100%-70%). Tissues were incubated with proteinase K for 30 min at 37° C. fixed, blocked and permeabilized. Apoptotic cells were detected by TUNEL assay in situ cell death detection kit (Roche Molecular Biochemicals, Laval, QC) according to the manufacturer's instruction. Positive TUNEL staining was visualised by fluorescence microscopy. In other experiments following TUNEL assay, tissue sections were counterstained with Hoechst 33258 (Sigma-Aldrich, Canada). Hoechst staining was added to tissues at a final concentration of 24 ug/ml in PBS and incubated for 15 minutes at room temperature. Tissue sections were washed and visualized by fluorescence microscopy using a blue screen (Rabbani, S. A., et al., Int. J.Cancer, 87:276-282, 2000). All results of immunohistochemistry and TUNEL assay were evaluated and interpreted by two independent examiners.
The degree of DNA fragmentation was also analyzed in vivo using TUNEL assay which can serve as a marker for apoptosis. […] All animals were sacrificed at the end of the study and their primary tumors removed, paraffin embedded, sectioned and processed by TUNEL assay (upper panel of FIG. 14B) as described herein. Following TUNEL assay, they were counterstained with Hoescht reagent (lower panel of FIG. 14B).
In order to investigate an underlying molecular mechanism of action of PCK3145 in reducing tumor growth, Mat Ly Lu-PTHrP tumors were analyzed using TUNEL assay which can serve as a marker for apoptosis. […] All animals were sacrificed at the end of the study and their primary tumors removed, paraffin embedded, sectioned and processed by TUNEL assay (upper panel) and counterstained with Hoescht reagent (lower panel). Five animals were present in each group and three sections were analyzed for each animal.

[5] = Animal weight and side-effect monitoring in tumor-bearing rats; conditions: for cytotoxic effects: overall conclusion of the study
Experimental: Also, alternatively, cell pellets (5×10^5 cells) were resuspended in 100 ul saline and injected using 1 ml syringes into the right flank of rats as described herein. From the time of tumor cell inoculation, experimental animals were treated with different doses (0.1, 1.0, 10.0, or 100.0 ug/kg/day) of PSP-94 or PCK3145 (SEQ ID NO.:5) via S.C. injections for 15 consecutive days. Control animals received PBS alone as vehicle control. All animals were numbered, kept separately and monitored daily for the development of tumors. […] All control and experimental animals were weighed every alternate day to determine any adverse effect of PSP-94 or PCK3145. Both control and experimental animals were sacrificed at day 16 post tumor cell inoculation and their tumors were removed and weighed.
During the study, both control and experimental animals were monitored for any noticeable side effects and cachexia resulting in weight loss. […] Starting on the time of tumor cell inoculation animals were infused with different doses of PSP-94 for fifteen consecutive days as described herein. All animals were weighed at timed intervals and comparison was made with that of tumor bearing animals receiving vehicle alone as control (CTL).
Male Copenhagen rats were inoculated with 1×10^6 Mat Ly Lu-PTHrP cells via S.C. route of injection into the right flank. Animals were infused daily via S.C. route, below the site of tumor cell inoculation, with different doses (1.0-100.0 ug/kg/day) of PCK3145 starting from the day of tumor cell inoculation and lasting for 15 days. […] Animals were also weighed to determine any side effects of administering PCK3145. […] In order to determine the effect of PCK3145 on tumor weight, control animals and experimental animals receiving PCK3145 were sacrificed at the end of the study (day 16) and their tumors excised and weighed.

Molecule | cell growth ([1]; PCK3145 1.0-100.0 ug/ml up to 5 days, vs vehicle) | cell number ([1]; PCK3145 highest dose 100.0 ug/ml, vs vehicle) | tumor volume ([2]; PCK3145 1.0-100.0 ug/kg/day S.C. for 15 days, vs vehicle) | tumor weight ([2]; different doses of PCK3145, day 16 (data not shown), vs vehicle) | plasma calcium levels ([3]; 100.0 ug/kg PCK3145, relative to lower doses) | plasma calcium levels ([3]; different doses of PCK3145, day 16, vs vehicle) | Hoechst counterstaining of tumor sections ([4]; Example 9, PCK3145 study) | TUNEL staining of tumor sections ([4]; PCK3145 100.0 ug/kg/day) | animal weight ([5]; PCK3145 1.0-100.0 ug/kg/day S.C. for 15 days) | cytotoxic effects [5] | MatLyLu-PTHrP cell growth ([1]; 10.0 ug/ml PSP-94 for 72 hrs, vs cells without PSP-94) | tumor volume ([2]; 10.0 ug/kg/day PSP-94 as compared to 1.0 ug/kg/day PSP-94) | tumor volume ([2]; PSP-94 0.1-10.0 ug/kg/day S.C. up to 15 days, vs vehicle) | tumor weight ([2]; PSP-94 0.1-10.0 ug/kg/day, tumors excised day 16, vs vehicle) | plasma calcium levels ([3]; different doses of PSP-94, day 16, vs vehicle) | plasma calcium levels ([3]; highest dose of PSP-94, 10.0 ug/kg/day) | TUNEL staining of tumor sections ([4]; PSP-94 10.0 ug/kg/day) | Hoechst counterstaining of tumor sections ([4]; PSP-94 treated animals) | side effects or weight loss of experimental animals ([5]; different doses of PSP-94, S.C. tumor model) | animal weight ([5]; different doses of PSP-94 for fifteen consecutive days, vs vehicle)
E W Q T D N C E T C T C Y E T (EWQTDNCETCTCYET; PCK3145 (polypeptide 31-45)) | dose dependent decrease | significant reduction | significant dose-dependent reduction | dose-dependent decrease | more pronounced | significant reduction | presence of apoptotic bodies | significantly more TUNEL positive | No significant difference | without manifesting any noticeable cytotoxic effects |  |  |  |  |  |  |  |  |  | 
B1 |  |  |  |  |  |  | condensed chromatin |  |  | without manifesting any noticeable cytotoxic effects | significant decrease | did not show a marked decrease | marked dose-dependent reduction | significant dose-dependent decrease | significant reduction; also recorded: dose-dependent decrease | near normalization | significantly more TUNEL positive | presence of apoptotic bodies; also recorded: condensed chromatin | not associated with any noticeable side effects or weight loss | No significant change
